# Measured values taken from the nanobody polyreactivity screen of Harvey et al. (2022).
# Assay: yeast display, Sf9 membrane polyspecificity reagent, FACS + sequencing; frameworks hold sequencing errors
# In short: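 A nanobody's polyreactivity label depends on the gate it was sorted from. Yeast display cells were stained with 10% biotinylated, detergent-solubilized Sf9 membrane reagent for 1 hour at 4 °C, enriched on streptavidin microbeads and sorted by FACS. The low and high (top ~1%) gates were set on anti-HA fluorescence for expression and streptavidin fluorescence for reagent binding.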
row,Sequence,polyreactivity (PSR sort gate)
1,QVQLVESGGGLVQAGGSLRLSCAASGIIFDYNAMGWYRQAPGKERELVASIDSGGSTNYADSVKGRFTISRDNAKNTVYLQMNSLKPEDTAVYYSNADDTTVSPWYYYYQSYYWGQGTQVTVSS,low polyreactivity
2,QVQLVESGGGLVQAGGSLRLSCAASGIIFDYNAMGWYRQAPGKERELVDSIDSGCSTNYADSVKGSFTISRDNAKNTVYLQMNSLKPEDTAVYYCNADDTTVSPWYYYYQSYYWGQGTQVTVSS,low polyreactivity
3,QVQLVESGGGLVQAGGSLRLSCAASGIIFDYYAMGWYRQAPGKERELVATITGNSTNTYYADSVKGRFTISRDNAKNTVYLQMNSLKPEDTAVYYCATAQTRWWPSIAGYDYWGQGTQVTVSS,high polyreactivity
4,QVQLVESGGGLVQAGGSLRLSCAASGIIFDYYDMGWYRQAPGKERELVAAISAGGGSTYYADSVKGRFTISRDNAKNTVYLQMNSLKPEDTAVYYCAALYWRSTVGAYSTYEYDYWGQGTQVTVSS,high polyreactivity
5,QVQLVESGGGLVQAGGSLRLSCAASGIIFEGYAMGWYRQAPGKERELVAGITIGDITYYADSVKGRFTISRDNAKNTVYLQMNSLKPEDTAVYYCAADSYYYQTAYDSWGQGTQVTVSS,low polyreactivity
6,QVQLVESGGGLVQAGGSLRLSCAASGIIFESNAMGWYRQAPGKERELVAAITGRGGRTYYADSVKGRFTISRDNAKNTVYLQTNSLKPEDTAVYYCAADGLRLVPGYKYDYWGQGTQVTVSS,high polyreactivity
7,QVQLVESGGGLVQAGGSLRLSCAASGIIFESYAMGCYRQAPGKERELVAAISSRGGSTYYADSVKGRFTISRDNSKNTVYLQMNSLKPEDTAVYYCAADVAAGVSSYPTKYSYDYWGQGTQVTVSS,low polyreactivity
8,QVQLVESGGGLVQAGGSLRLSCAASGIIFEYYAKGWYRQAPGKERELVAAITSDGSTNYADSVKGRFTISRDNEKNTVYLQMNRLKPEDTAVYYCNADLKANIQGVLSTGDDYWGQGTQVTVSS,low polyreactivity
9,QVQLVESGGGLVQAGGSLRLSCAASGIIFEYYAMVWYRQAPGKDRELVAAISRSSVSTYYADSVKGRFTISRDNAKNTVYLQMNSLKPEDTAVYYCAARQGYGYYKYGKYYYWGQGTQVTVSS,high polyreactivity
10,QVQLVESGGGLVQAGGSLRLSCAASGIIFFIYAMGWYRQAPGKERELVATISWTGGSTYYADSVKGRFTISRDNAKNTVYLQMNSLKPEDTAVYYCNADEWRWDEIIPYAVDYWGQGTQVTVSS,low polyreactivity
11,QVQLVESGGGLVQAGGSLRLSCAASGIIFFSNAMGWYRQAPGKERELVAAIDDSDGVTYYADSVKGRFTISRDNAKNTVYLQMNSLKPEDTAVYYCAAVDGWTYTGSDYWGDGTQVTVSS,low polyreactivity
12,QVQLVESGGGLVQAGGSLRLSCAASGIIFGFYAMGWYREAPGKERELVADITNDGGNTNYADSVKGRFTISRDNAKNTVYLQMNSLKPEDTAVYYCNADRTQVRNRYTYATFDYWGQGTQVTVSS,low polyreactivity
13,QVQLVESGGGLVQAGGSLRLSCAASGIIFGGYAMGWYRQAPGKERELVASISYSGGSTYYADSVKGRFTISRDNAKNTVYLQMNSLKPEDTAVYYCAAGYPRTPAAGYYWGQGTQVTVSS,high polyreactivity
14,QVQLVESGGGLVQAGGSLRLSCAASGIIFGHYAMGWYRQAPGKERELVAAIRSSGGTTYYADSVKGRFTISRDNAKNTVYLQMNRLKPEDTAVYYCAKRGVHLYHDYYWGQGTQVTVSS,low polyreactivity
15,QVQLVESGGGLVQAGGSLRLSCAASGIIFGHYDMGWYRQAPGKERELVAAITFTGDSTYYADSVKGRFTISRDKAKNTVYLQMTSLKPEDTAVYYCAAETPVPWGSWGYDYWGQGTQVTVSS,low polyreactivity
16,QVQLVESGGGLVQAGGSLRLSCAASGIIFGIYDMGWSRQAPGKERELVAAIRRSGGSTYYADSVKGRFTISRDNAKNTVYLQMNSLKPEDTAVYYCAATRHSRVRGGDYWGQGTQVTVSS,low polyreactivity
17,QVQLVESGGGLVQAGGSLRLSCAASGIIFGKNAMGWYRHAPGKERELVAAISSSGGSTYYADSVKGRFTISRDNAKNTVYLQMNSLKPEDTAVYYCATERGSRRSGSRMDYWGQGTQVTVSS,high polyreactivity
18,QVQLVESGGGLVQAGGSLRLSCAASGIIFGQYAMGGYIQAPGKEREFVSAISRSGGSTNYADSVKGLFTISRDNAKNTVYLQMNSLKPEDTAVYYCNKRARHTGDFVWGHGYWGQGTQVTVSS,low polyreactivity
19,QVQLVESGGGLVQAGGSLRLSCAASGIIFGRNAMGWYRQAPGKERELVAAIRWSGGSTYYADSVKGRFTISRDNAKNTVYLQMNSLKPEDTAVYYCAKRYSYWSGVKYGYWGQGTQVTVSS,high polyreactivity
20,QVQLVESGGGLVQAGGSLRLSCAASGIIFGRNVMGWYRQAPGKERELVAAITRRGVNTYYADSVKGRFTISRDNAKNTVYLQMNSLKPEDTAVYYCAATWWQYDQGLHRYDYWGQGTQVTVSS,high polyreactivity

row,Sequence,polyreactivity (PSR sort gate)
1,QVQLVESGGGLVQAGGSLRLSCAASGIIFGRYAMGWYRQAPGKERELVAAITRGGSTKYADSVKGRFTISRDNAKNTVYLQMNSLKPEDTAVYYCARVRRYPLRYNYWGQGTQVTVSS,high polyreactivity
2,QVQLVESGGGLVQAGGSLRLSCAASGIIFGVNAMGWYRQAPGKERELVASITSGGSTNYADSVKGRFTISRDNAKNTVYLQMNSLKPEDTAVYYCNARWWAPGRPGDEINRILDYWGQGTQVTVSS,low polyreactivity
3,QVQLVESGGGLVQAGGSLRLSCAASGIIFGWYAMGWYRQAPGKERELVAAINWSGTSTYYADSVKGRFTISRDNAKNTVYLQMNSLKPEDPAVYYCAAYFQKLPTTGYEYWGQGTQVTVSS,low polyreactivity
4,QVQLVESGGGLVQAGGSLRLSCAASGIIFGYNAMGLYRQAHGKERELVASIDVSGGITYYADSVKGRFTISRDNAKNTVYLQMNSLKPEDTAVYYCAAAVYGRGSPHYYWGEGTQVTVSS,high polyreactivity
5,QVQLVESGGGLVQAGGSLRLSCAASGIIFGYNVMGWYRQAPGKERELVAAISGSGSSTYYADSVKGRFTISRDNAKNTVYLQMNSLKPEDTAVYYCARQRYEYRTTYYYWGQGTQVTVSS,high polyreactivity
6,QVQLVESGGGLVQAGGSLRLSCAASGIIFGYYAMGWYRQAPGKERELVAAINQDGSSTYYADSVKGRFTISRDNAKNTVYLQMNSLKPEDTAVYYCNARGVPRQDARMGYWGQGTQVTVSS,low polyreactivity
7,QVQLVESGGGLVQAGGSLRLSCAASGIIFGYYAMGWYRQAPGKERELVAAISSIGGSTYYADSVKGRFTISRDNAKNTVYLQMNSLKPEDTAVYYCNAASSRWPEYDYWGQGTQVTVSS,high polyreactivity
8,QVQLVESGGGLVQAGGSLRLSCAASGIIFHFNDMGWYRQAPGKERELVAAITSGGSTNYADSVKGRFTLSRDYAKKTVYLQMNSLKPEDTAVYYCNAEPPRGYTVSSGGEMDYWGQGTQVTVSS,low polyreactivity
9,QVQLVESGGGLVQAGGSLRLSCAASGIIFHKYAMGWYRQAPGTERELVAAISRSGGRTYYADSVKGRFTISRDNAKNTVYLQMNSLKPEDTAVYYCAARYLKPGGAYDSWGQGTQVTVSS,high polyreactivity
10,QVQLVESGGGLVQAGGSLRLSCAASGIIFHLYAMGWYRPAPGKERELVAAISWNGSSTYYADSVKGRFTISRDNAKNTVYLQMNSLKPEDTAVYYCAASYGYFEDYGYWGQGTQVTVSS,low polyreactivity
11,QVQLVESGGGLVQAGGSLRLSCAASGIIFHPYAMGWYRQAPGKERELVAVITWPGDSTYYADSVKGRFRISRDNAKNTVYLQMNSLKPEDTAVYYCNVDAWGTSGELPYDYWGQGTQVTVSS,low polyreactivity
12,QVQLVESGGGLVQAGGSLRLSCAASGIIFIGNAMGWYRQAPGKERELVAAISSDGDSTYYADSVKGRFTISRDNAKNTVYLQMNSLKPEDTAVYYCAKDYYPDYYGLYLWPFDYWGQGTQVTVSS,high polyreactivity
13,QVQLVESGGGLVQAGGSLRLSCAASGIIFIKYAMGWYRQAPGKERELVAAITSGGSTHYADSVKGRFTISRDNAKNTVYLQMNSLKPEETAVYYCNADILRHVAYFKDRYQAGSYWGQGTQVTVSS,low polyreactivity
14,QVQLVESGGGLVQAGGSLRLSCAASGIIFINYAMGWYRQAPGKERELVAAINSGGSTKYADSEKGRFTISRDNAKNTVYLLMNSLKPEDTAVYDCAAVPAGRYYWWLYYYWGQGTQVTVSS,high polyreactivity
15,QVQLVESGGGLVQAGGSLRLSCAASGIIFIPYAMGWYRQAPGKEREFVAAISSSGGSTYYADSVKGRFTISRDNAKNTVYLQMNSLKPEDTSVYYCAAQYVSRRYSRYNYWGQGTQVTVSS,high polyreactivity
16,QVQLVESGGGLVQAGGSLRLSCAASGIIFIPYAMGWYRQAPGKERELVASISKRGGRTYYADSVKGRFTISRDNAKNTVYLQMNSLKPEDTAVYYCAAYARYPVVYGVDYWGQGTQVTVSS,high polyreactivity
17,QVQLVESGGGLVQAGGSLRLSCAASGIIFIVNSMGWYRQAPGKERELVADISENGGDTYYADSVKGRFTISRDNAKNTVYLQMNSLKPEDSAVYYCAKSGEPYTRFDYWGQGTQVTVSS,low polyreactivity
18,QVQLVESGGGLVQAGGSLRLSCAASGIIFKLYAMGWYRQAPGKEREFVATITKTGGRTYYADSVKGRFTISRDNAKNTVYLQMNSLKPEDTAVYYCAARRVNGKMYYWGQGTQVTVSS,high polyreactivity
19,QVQLVESGGGLVQAGGSLRLSCAASGIIFKLYAMGWYRQAPGKERELVAAITYRGGTTYYADSVKGRFTISRDNAKNTVYLQMNSLKPEDTAVYYCAADNTFRDDYFLYYLFNYNYWGQGTQVTVSS,low polyreactivity
20,QVQLVESGGGLVQAGGSLRLSCAASGIIFKYNVMGWYRQAPGKERELVAAITDSGTSTFYADSVKGRFTISRDNAKNTVYLQMNSLKPEDTAVYYCAADEFSVFTIETYGYDYWGQGTQVTVSS,low polyreactivity
